Data taken from patent publication US20210206855A1 (ADAGENE, published 2021).
Numbering of substitutions follows the chain as printed. Like-named read-outs stand apart in the source and are kept apart here.

Experiments:
human CD80 (recombinant) = target: T1, human CD80 (recombinant) (human, UniProt P33681 35-242, limits assumed, biotinylated where used in solution); assay: flow cytometry on yeast displaying CTLA4; Normalized FACS Bound, human WT = 1
T1 construct: also called biotinylated CD80
T1 sequence (looked up): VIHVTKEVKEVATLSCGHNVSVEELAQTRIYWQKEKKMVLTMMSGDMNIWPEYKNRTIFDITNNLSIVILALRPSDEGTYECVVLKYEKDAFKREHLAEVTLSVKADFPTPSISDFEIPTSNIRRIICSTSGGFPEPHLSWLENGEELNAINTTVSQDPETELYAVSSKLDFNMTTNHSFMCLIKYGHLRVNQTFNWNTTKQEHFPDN

mouse CD86 = target: T2, mouse CD86 (mouse, UniProt P42082 24-244, limits assumed); assay: as above
T2 sequence (looked up): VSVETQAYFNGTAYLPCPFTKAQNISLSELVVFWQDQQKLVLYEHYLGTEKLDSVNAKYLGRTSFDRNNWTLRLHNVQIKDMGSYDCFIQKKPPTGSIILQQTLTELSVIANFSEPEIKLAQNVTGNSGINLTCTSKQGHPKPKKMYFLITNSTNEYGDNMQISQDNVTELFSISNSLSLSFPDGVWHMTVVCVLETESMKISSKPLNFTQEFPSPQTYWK

[1] = target: T3, human CD86 (epitope mapping reagent) (human, UniProt P42081 24-247, limits assumed); assay: as above
T3 sequence (looked up): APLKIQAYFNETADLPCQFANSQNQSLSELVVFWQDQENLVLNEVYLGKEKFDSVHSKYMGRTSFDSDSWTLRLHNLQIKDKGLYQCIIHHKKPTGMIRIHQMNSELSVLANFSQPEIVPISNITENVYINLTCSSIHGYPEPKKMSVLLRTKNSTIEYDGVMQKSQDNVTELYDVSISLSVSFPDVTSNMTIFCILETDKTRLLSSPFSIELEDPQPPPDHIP

[2] = target: T4, recombinant human CTLA4 fused with human Fc and His tag (human, UniProt P16410 37-162, limits assumed, biotinylated where used in solution); assay: competition ELISA: plate-bound human CTLA4-Fc-His, biotinylated human CD80 as the blocked ligand, HRP-neutravidin
T4 construct: also called biotinylated human CTLA4 fused with human FC and His tag; recombinant human CTLA4 proteins; not shown: human Fc and His tag
T4 sequence (looked up): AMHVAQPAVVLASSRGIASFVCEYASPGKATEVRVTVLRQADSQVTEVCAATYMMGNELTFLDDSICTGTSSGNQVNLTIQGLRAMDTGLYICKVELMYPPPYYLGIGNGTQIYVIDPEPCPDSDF
Procedure: Plates were blocked with PBS supplemented with 2% (w/v) skim milk at 37° C. for 1 hour. […] Plates were washed four times, and 100 μL HRP-neutravidin (1:1000) was added to each well and incubated at 37° C. for 1 hour. Plates were washed as previously described, and 50 μL TMB substrate solution was added and incubated at room temperature for 5 minutes before the reaction was stopped by 50 μL sulfate acid (2M).

[3] = target: T5, recombinant human CTLA4-Fc (Sino Biological, 11159-H03H) (human, UniProt P16410 37-162); assay: ELISA, coated human CTLA4-Fc
T5 construct: bought; whole entry named; Biotinylated in the yeast display assays; also called human CTLA4 fused with human FC fragment; biotinylated CTLA4-Fc; not shown: human Fc fragment
T5 sequence (looked up): T4 sequence (looked up)
Procedure: (§1) The ability of certain IgG antibodies to bind to soluble human (FIG. 1A, Table 5A) or canine (FIG. 1B, Table 5B) CTLA4 was next tested. 1 μg/mL human CTLA4 fused with human FC fragment, or canine CTLA4 fused with His tag, were prepared and used to coat an ELISA plate at 2-8° C. overnight. After blocking, 100 μL serial diluted IgG antibodies were added and incubated at 37° C. for 1 hour. Plates were washed for four times and then incubated with HRP-anti human IgG (Fab specific) (1:6000 dilution) at 37° C. for 1 hour. Plates were washed again four times and incubated with TMB substrate for 15 minutes at room temperature. […] The data was analyzed by Graphpad Prism 6 with nonlinear fitting.

[4] = target: T6, canine CTLA4 fused with His tag (canine, UniProt Q9XSI1 36-162, limits assumed); assay: ELISA, coated canine CTLA4-His
T6 construct: soluble protein; also called dog CTLA4; not shown: His tag
T6 sequence (looked up): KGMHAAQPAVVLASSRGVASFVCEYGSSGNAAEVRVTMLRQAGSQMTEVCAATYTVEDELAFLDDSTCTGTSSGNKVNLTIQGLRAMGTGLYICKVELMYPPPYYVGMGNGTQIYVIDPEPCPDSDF
Procedure: as §1

[5] = target: T7, full-length mouse CTLA4 on the cell surface (HEK293F transfectants; also activated mouse T cells) (mouse, UniProt P09793 36-223); assay: flow cytometry on HEK293F cells transiently expressing full-length mouse CTLA4; Alexa Fluor 647 anti-human Fc
T7 construct: whole, on cells; also called mouse cell-surface exposed mouse CTLA4
Procedure: (§2) The affinities of the antibodies were also assessed against human and mouse CTLA4 transiently expressed on the surface of HEK293F cells (FIG. 2). Briefly, HEK293F cells were transfected with a plasmid expressing full-length human, monkey or mouse CTLA4 from a bicistronic IRES vector also encoding EGFP, and EGFP expression was used to identify the transfected cells. After 48 hours, the mammalian cell suspension (2×10⁵/well) was transferred to an Eppendorf tube, centrifuged, the supernatant was discarded, the cells were resuspended with 1 mL PBSA (to a density is 4×10⁶ cells/mL), and added to a 96 well plate. […] The cells were then washed once prior to analysis by flow cytometry (Beckman® CytoFlex).

[6] = target: T8, full-length human CTLA4 on the cell surface (HEK293F transfectants); also activated human T cells, … (human, UniProt P16410 36-223); assay: flow cytometry on HEK293F cells transiently expressing full-length human CTLA4; Alexa Fluor 647 anti-human Fc
T8 construct: whole, on cells; used for every assay with human CTLA4 on cells; also called HEK293F/hCTLA-4; HEK293F/hCTLA4
T8 sequence (looked up): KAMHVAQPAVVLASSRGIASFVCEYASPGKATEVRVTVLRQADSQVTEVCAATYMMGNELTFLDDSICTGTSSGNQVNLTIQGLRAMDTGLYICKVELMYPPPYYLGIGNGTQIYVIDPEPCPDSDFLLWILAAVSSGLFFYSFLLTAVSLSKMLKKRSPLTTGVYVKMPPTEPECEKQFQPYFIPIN
Procedure: as §2

[7] = target: T9, mouse CTLA4 antigen fused with human FC fragment (mouse, UniProt P09793 36-162, limits assumed); assay: ELISA, captured Fab
T9 construct: not shown: human Fc fragment

[8] = target: T5, recombinant human CTLA4-Fc (Sino …); assay: ELISA, captured Fab
[9] = target: T10, cynomolgus monkey CTLA4 antigen fused with human FC fragment (cynomolgus monkey, UniProt G7PL88 36-161, fused to a human Fc fragment that is not in the letters); assay: ELISA, captured Fab
T10 sequence: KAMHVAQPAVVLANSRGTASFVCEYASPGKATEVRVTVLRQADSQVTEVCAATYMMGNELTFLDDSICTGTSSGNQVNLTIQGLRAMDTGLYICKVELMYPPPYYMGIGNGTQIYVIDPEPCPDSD

[10] = target: T5, recombinant human CTLA4-Fc (Sino …); assay: ELISA, coated human CTLA4-Fc (as Example 8)
Procedure: (§3) Plates were blocked with PBS supplemented with 3% non-fat milk at 37° C. for 1 hour. After washing, 100 μL of 3-fold serial dilutions of antibodies were added to each well. After incubation at 37° C. for 1 hour, plates were washed four times, and […] conjugated anti-human IgG (Fab specific) (1:6000 dilution) was added to each well. Plates were incubated at 37° C. for 1 hour, washed four times, and then 50 μL TMB substrate solution was added to each well, and the plate was incubated at room temperature. […] The EC₅₀ was evaluated by fitting the ELISA data using the asymmetrical sigmoidal (five-parameter logistic equation) model of GraphPad Prism 6 software.

[11] = target: T5, recombinant human CTLA4-Fc (Sino …); assay: ELISA, coated human CTLA4-Fc (as Example 8); remark: listed apart in the source
Procedure: as §3

B1: human CTLA4 mutant YLGIG105FVGMG displayed on yeast (receptor)
chain: KAMHVAQPAVVLASSRGIASFVCEYASPGKATEVRVTVLRQADSQVTEVCAATYMMGNELTFLDDSICTGTSSGNQVNLTIQGLRAMDTGLYICKVELMYPPPYFVGMGNGTQIYVIDPE
notes: also called G strand changed to mouse
binding result (human CD80 (recombinant)): binds
binding result (mouse CD86): binds
binding result [1]: binds

B2: TY21687 (antibody, V domains shown)
VH: EVQLVESGGGLVQPGGSLRLSCAASGFTFSGYAIHWVRQAPGKGLEWIGIISPSGGGTKYAQKFQGRVTISRDNSKNTLYLQLNSLRAEDTAVYYCARHPFAYWGQGTLVTVSS
VL: DIQLTQSPSSLSASVGDRVTITCRASQSVDFYGISFLDWYQQKPGKAPKLLIYDASNRATGIPSRFSGSGSGTDFTLTISSLQPEDFATYYCQQYVSSPPEYTFGQGTKVEIK
IC50 (read off the curve) [2]: ~40 nM
LogEC50 [3]: -9.49 log M
LogEC50 [4]: -9.13 log M

B3: TY21585 (antibody, V domains shown)
VH: EVQLVESGGGLVQPGGSLRLSCAASGFTFSDYAIHWVRQAPGKGLEWIGIISPSSGSTNYAQKFQGRVTISRDNSKNTLYLQLNSLRAEDTAVYYCARDIHSGSSGYYYGFDVWGQGTLVTVSS
VL: B2 VL with Q27E, Y32F, D38A, Q94H, V96T, E101V
IC50 (read off the curve) [2]: ~20 nM
LogEC50 [3]: -9.26 log M
LogEC50 [4]: -8.22 log M

B4: TY21588 (antibody, V domains shown)
VH: EVQLVESGGGLVQPGGSLRLSCAASGYSISSGYHWDWIRQAPGKGLEWVSGISGYGGSTYYADSVKGRFTISRDNSKNTLYLQLNSLRAEDTAVYYCARHSYYGSGNFDYWGQGTLVTVSS
VL: DIQLTQSPSSLSASVGDRVTITCRASESVDFFGKSFLHWYQQKPGKAPKLLIYDASNLETGVPSRFSGSGSGTDFTLTISSLQPEDFATYYCQQSYSWPPTFGQGTKVEIKR
binding result [5]: binds
binding result [6]: binds
binding result [2]: binds

B5: B15732 (Fab, V domains shown)
VH: B4 VH
VL: B4 VL
notes: Fab hit from E. coli
binding result [7]: binds
binding result [8]: binds
binding result [9]: binds

B6: TY22402 (peptide as listed in Table 26) (antibody, V domains shown)
VH: EVQLVESGGGLVQPGGSLRLSCAASGYSISSGYHWSWIRQAPGKGLEWLARIDWDDDKYYSTSLKSRLTISRDNSKNTLYLQLNSLRAEDTAVYYCARSYVYFDYWGQGTLVTVSS
VL: EVGSYIVHHSDCDAFYPYCDSSGRSAGGGGTPLGLAGSGGSDIQLTQSPSSLSASVGDRVTITCRASQSVRGRFLAWYQQKPGKAPKLLIYDASNRATGIPSRFSGSGSGTDFTLTISSLQPEDFATYYCQQSSSWPPTFGQGTKVEIKR
notes: kept apart from m66
EC50 [10]: 116 nM
EC50 [11]: 54 nM

B7: TY21591 (antibody, V domains shown)
VH: EVQLVESGGGLVQPGGSLRLSCAASGFSLSTGGVAVSWIRQAPGKGLEWIGEIYHSGSTYYSPSLKSRVTISRDNSKNTLYLQLNSLRAEDTAVYYCARRIATATYFDYWGQGTLVTVSS
VL: DIQLTQSPSSLSASVGDRVTITCRASQTVFSRYLAWYQQKPGKAPKLLIYDASNRATGIPSRFSGSGSGTDFTLTISSLQPEDFATYYCQQSYYWPPWTFGQGTKVEIK
LogEC50 [3]: -9.08 log M
LogEC50 [4]: -9.15 log M
